One may read the Kd as the equilibrium constant for the complex coming apart.

Test [1] addresses T1, Srr2-BR (untagged recombinant binding region of Srr2) (Streptococcus agalactiae (strain COH1)).
T1 construct: I took it to be this one; also called untagged Srr2-BR; recombinant Srr2; source: E. coli, purified (nickel-nitrilotriacetic acid or anti-FLAG M2-agarose)
Description: SPR; BIAcore T100; fibrinogen amine-coupled to a CM5 chip; Srr1-BR or Srr2-BR 1.25–160 μM flowed at 10 μl/min; KD from equilibrium responses. The settings on record: both partners purified.

The target in test [2] is T2, Srr1-BR (untagged recombinant binding region of Srr1) (Streptococcus agalactiae (strain NCTC …)).
T2 construct: I took it to be this one; also called untagged Srr1-BR; recombinant Srr1; source: E. coli, purified (nickel-nitrilotriacetic acid or anti-FLAG M2-agarose)
The test is described as above. Conditions: both partners purified.

T1 sequence (P02671 36-866): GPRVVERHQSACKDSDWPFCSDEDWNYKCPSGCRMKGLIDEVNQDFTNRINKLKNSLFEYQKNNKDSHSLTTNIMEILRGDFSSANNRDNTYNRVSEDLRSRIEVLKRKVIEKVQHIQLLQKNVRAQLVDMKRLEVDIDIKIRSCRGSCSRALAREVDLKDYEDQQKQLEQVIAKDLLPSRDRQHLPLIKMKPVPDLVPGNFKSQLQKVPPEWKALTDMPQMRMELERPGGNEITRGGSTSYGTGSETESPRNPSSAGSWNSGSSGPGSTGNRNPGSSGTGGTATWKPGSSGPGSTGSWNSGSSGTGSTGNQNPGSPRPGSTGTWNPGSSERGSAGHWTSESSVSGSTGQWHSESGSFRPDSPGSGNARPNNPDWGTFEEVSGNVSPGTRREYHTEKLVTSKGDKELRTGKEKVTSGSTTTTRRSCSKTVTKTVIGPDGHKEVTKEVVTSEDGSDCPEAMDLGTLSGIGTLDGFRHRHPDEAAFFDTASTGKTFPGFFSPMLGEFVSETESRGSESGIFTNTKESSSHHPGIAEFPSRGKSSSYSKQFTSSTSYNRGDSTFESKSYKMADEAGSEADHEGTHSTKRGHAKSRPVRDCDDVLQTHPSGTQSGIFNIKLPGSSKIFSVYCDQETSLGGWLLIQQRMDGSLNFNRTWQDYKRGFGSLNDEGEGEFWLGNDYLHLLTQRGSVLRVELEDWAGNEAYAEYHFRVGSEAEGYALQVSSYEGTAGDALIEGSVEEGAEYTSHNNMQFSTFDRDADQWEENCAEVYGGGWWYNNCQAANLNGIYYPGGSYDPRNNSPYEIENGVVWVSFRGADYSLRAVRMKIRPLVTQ
T2 sequence (P02671 36-866): as above

B1: purified human fibrinogen (complex)
chain 1: ADSGEGDFLAEGGGVRGPRVVERHQSACKDSDWPFCSDEDWNYKCPSGCRMKGLIDEVNQDFTNRINKLKNSLFEYQKNNKDSHSLTTNIMEILRGDFSSANNRDNTYNRVSEDLRSRIEVLKRKVIEKVQHIQLLQKNVRAQLVDMKRLEVDIDIKIRSCRGSCSRALAREVDLKDYEDQQKQLEQVIAKDLLPSRDRQHLPLIKMKPVPDLVPGNFKSQLQKVPPEWKALTDMPQMRMELERPGGNEITRGGSTSYGTGSETESPRNPSSAGSWNSGSSGPGSTGNRNPGSSGTGGTATWKPGSSGPGSTGSWNSGSSGTGSTGNQNPGSPRPGSTGTWNPGSSERGSAGHWTSESSVSGSTGQWHSESGSFRPDSPGSGNARPNNPDWGTFEEVSGNVSPGTRREYHTEKLVTSKGDKELRTGKEKVTSGSTTTTRRSCSKTVTKTVIGPDGHKEVTKEVVTSEDGSDCPEAMDLGTLSGIGTLDGFRHRHPDEAAFFDTASTGKTFPGFFSPMLGEFVSETESRGSESGIFTNTKESSSHHPGIAEFPSRGKSSSYSKQFTSSTSYNRGDSTFESKSYKMADEAGSEADHEGTHSTKRGHAKSRPV
chain 2: QGVNDNEEGFFSARGHRPLDKKREEAPSLRPAPPPISGGGYRARPAKAAATQKKVERKAPDAGGCLHADPDLGVLCPTGCQLQEALLQQERPIRNSVDELNNNVEAVSQTSSSSFQYMYLLKDLWQKRQKQVKDNENVVNEYSSELEKHQLYIDETVNSNIPTNLRVLRSILENLRSKIQKLESDVSAQMEYCRTPCTVSCNIPVVSGKECEEIIRKGGETSEMYLIQPDSSVKPYRVYCDMNTENGGWTVIQNRQDGSVDFGRKWDPYKQGFGNVATNTDGKNYCGLPGEYWLGNDKISQLTRMGPTELLIEMEDWKGDKVKAHYGGFTVQNEANKYQISVNKYRGTAGNALMDGASQLMGENRTMTIHNGMFFSTYDRDNDGWLTSDPRKQCSKEDGGGWWYNRCHAANPNGRYYWGGQYTWDMAKHGTDDGVVWMNWKGSWYSMRKMSMKIRPFFPQQ
chain 3: YVATRDNCCILDERFGSYCPTTCGIADFLSTYQTKVDKDLQSLEDILHQVENKTSEVKQLIKAIQLTYNPDESSKPNMIDAATLKSRKMLEEIMKYEASILTHDSSIRYLQEIYNSNNQKIVNLKEKVAQLEAQCQEPCKDTVQIHDITGKDCQDIANKGAKQSGLYFIKPLKANQQFLVYCEIDGSGNGWTVFQKRLDGSVDFKKNWIQYKEGFGHLSPTGTTEFWLGNEKIHLISTQSAIPYALRVELEDWNGRTSTADYAMFKVGPEADKYRLTYAYFAGGDAGDAFDGFDFGDDPSDKFFTSHNGMQFSTWDNDNDKFEGNCAEQDGSGWWMNKCHAGHLNGVYYQGGTYSKASTPNGYDNGIIWATWKTRWYSMKKTTMKIIPFNRLTIGEGQQHHLGGAKQAGDV
modifications: plasma-derived disulfide-linked hexamer (AαBβγ)2, N-glycosylated; Aα taken as the 610-residue circulating form (paper's Aα(1-610)), γ as the major γA form with the C-terminus printed in the text …
For B1, the Kd in test [1] worked out at 3.7 µM; in test [2] it was 21 µM.

These data come from PMC3861647, “Characterization of Fibrinogen Binding by Glycoproteins Srr1 and Srr2 of Streptococcus agalactiae*” (The Journal of Biological Chemistry, 2013).
